Results reported in paper PMC11245101.
Several values for one entry are separate records, joined by “and”; a condition that tells them apart may be missing. Identical values can stand only once. Values belong to the substance of their own block, whether it stands above or below them.

Columns and labels:
Assay in all cases: AUC
[1] = biological target: TDP-43 CTD S→E S273C, disulfide cross-linked dimer (human)
[2] = biological target: TDP-43 CTD S→E S305C, disulfide cross-linked dimer (human)
[3] = biological target: TDP-43 CTD S→E S317C, disulfide cross-linked dimer (human)

- fraction of tetramer [1]: < 1%
Substance: TDP-43 CTD S→E S273C, disulfide cross-linked dimer (domain or fragment)

- Kd dimer-tetramer [2]: 58 µM
- Kd tetramer-octamer [2]: 4.7 µM
- stoichiometry N [2]: 4 and 8
Substance: TDP-43 CTD S→E S305C, disulfide cross-linked dimer (domain or fragment)

- Kd [3]: 46 µM
- stoichiometry N [3]: 4
Substance: TDP-43 CTD S→E S317C, disulfide cross-linked dimer (domain or fragment)
